Where a chain is given by its changes, count along the chain named.
T1: FcγRIIa type H (human, UniProt P12318 36-217)
T1 construct: SPR analyte; also called FcγRIIaH
T1 sequence: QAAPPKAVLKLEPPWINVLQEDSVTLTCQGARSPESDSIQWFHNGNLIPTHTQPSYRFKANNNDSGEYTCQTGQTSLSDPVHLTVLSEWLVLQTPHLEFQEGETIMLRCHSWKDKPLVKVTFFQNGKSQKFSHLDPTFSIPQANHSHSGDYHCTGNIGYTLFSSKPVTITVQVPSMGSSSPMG

T2: FcγRIIb (human, UniProt P31994 43-217, limits assumed)
T2 construct: SPR analyte; also called FcγIIB; CD32
T2 sequence: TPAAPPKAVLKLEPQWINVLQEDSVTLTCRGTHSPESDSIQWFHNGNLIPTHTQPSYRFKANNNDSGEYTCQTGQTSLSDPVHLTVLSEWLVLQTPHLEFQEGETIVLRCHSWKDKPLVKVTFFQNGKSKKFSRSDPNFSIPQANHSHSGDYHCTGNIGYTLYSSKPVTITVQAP

T3: FcγRIIa type R (human, UniProt P12318 36-217)
T3 construct: SPR analyte; also called FcγRIIaR; FcγRIIa(R)
T3 chain: T1 sequence with H133R

T4: FcγRIIb (human, UniProt P31994 43-217, limits assumed)
T4 construct: also called FcγIIB; CD32
T4 sequence: T2 sequence

T5: FcγRIIa type R (human, UniProt P12318 36-217)
T5 construct: also called FcγRIIaR; FcγRIIa(R)
T5 chain: T1 sequence with H133R

T6: FcγRIIa type H (human, UniProt P12318 36-217)
T6 construct: also called FcγRIIaH; FcγRIIa(H)
T6 sequence: T1 sequence

T7: FcγRIIa type H (human, UniProt P12318 36-217)
T7 construct: also called FcγRIIaH; FcγRIIH
T7 sequence: T1 sequence

T8: FcγRIIb (human, UniProt P31994 43-217, limits assumed)
T8 construct: also called FcgRIIb; FcγIIB
T8 sequence: T2 sequence

B1: IL6R-BP089/IL6R-L (antibody, human IgG1)
heavy: QVQLQESGPGLVKPSETLSLTCAVSGHSISHDHAWSWVRQPPGEGLEWIGFISYSGITNYNPSLQGRVTISRDNSKNTLYLQMNSLRAEDTAVYYCARSLARTTAMDYWGEGTLVTVSSASTKGPSVFPLAPSSKSTSGGTAALGCLVKDYFPEPVTVSWNSGALTSGVHTFPAVLQSSGLYSLSSVVTVPSSSLGTQTYICNVNHKPSNTKVDKKVEPKSCDKTHTCPPCPAPEYLGGDSVFLFPPKPKDTLMISRTPEVTCVVVDVSHEDPEVKFNWYVDGVEVHNAKTKPREEQYNSTYRVVSVLTVLHQDWLNGKEYKCKVSNAALPKPIEKTISKAKGQPREPQVYTLPPSRDELTKNQVSLTCLVKGFYPSDIAVEWESNGQPENNYKTTPPVLDSDGSFFLYSKLTVDKSRWQQGNVFSCSVMHEALHNHYTQESLSLSP
light: DIQMTQSPSSLSASVGDRVTITCRASQDISSYLNWYQQKPGKAPKLLIYYTSRLHSGVPSRFSGSGSGTDFTFTISSLQPEDIATYYCQQGNTLPYTFGQGTKVEIK
B2: IL6R-BP129/IL6R-L (antibody, human IgG1)
heavy: B1 heavy with E235D, Y236L, Y298D, A328K
light: B1 light
B3: IL6R-BP132/IL6R-L (antibody, human IgG1)
heavy: B1 heavy with E235D, Y236L
light: B1 light
B4: IL6R-BP144/IL6R-L (antibody, human IgG1)
heavy: B1 heavy with Y236L, G239D, K332A
light: B1 light
B5: IL6R-BP145/IL6R-L (antibody, human IgG1)
heavy: B1 heavy with G239D, A328K, K332A
light: B1 light
B6: IL6R-BP148/IL6R-L (antibody, human IgG1)
heavy: B1 heavy with E235D, G239D
light: B1 light
B7: IL6R-BP176/IL6R-L (antibody, human IgG1)
heavy: B1 heavy with E235D, Y236L, A328D
light: B1 light
B8: IL6R-BP181/IL6R-L (antibody, human IgG1)
heavy: B1 heavy with E235D, Y236L, P273G
light: B1 light
B9: IL6R-BP192/IL6R-L (antibody, human IgG1)
heavy: B1 heavy with E235D, Y236L, H270D, P273G, Y298D, A328K
light: B1 light
notes: Anti-IL-6R human IgG1 variant; copies: 2 + 2
B10: IL6R-BP193/IL6R-L (antibody, human IgG1)
heavy: B1 heavy with E235D, Y236L, H270D, P273G, A328K
light: B1 light
notes: as for B9
B11: IL6R-BP199/IL6R-L (antibody, human IgG1)
heavy: B1 heavy with E235D, Y236L, A328D, K332R
light: B1 light
notes: as for B9
B12: IL6R-BP201/IL6R-L (antibody, human IgG1)
heavy: B1 heavy with E235D, Y236L, G239D, P273G, A328K, K332R
light: B1 light
notes: as for B9
B13: IL6R-BP202/IL6R-L (antibody, human IgG1)
heavy: B1 heavy with Y236L, G239D, P273G, K332R
light: B1 light
notes: as for B9
B14: IL6R-BP204/IL6R-L (antibody, human IgG1)
heavy: B1 heavy with E235D, Y236L, P273G, K332R
light: B1 light
notes: as for B9
B15: IL6R-BP205/IL6R-L (antibody, human IgG1)
heavy: B1 heavy with E235D, Y236L, P273G, Y298D, A328K, K332R
light: B1 light
notes: as for B9
B16: IL6R-BP210/IL6R-L (antibody, human IgG1)
heavy: B1 heavy with Y236L, G239D, H270D, P273G, A328K, K332R
light: B1 light
notes: as for B9
B17: IL6R-BP212/IL6R-L (antibody, human IgG1)
heavy: B1 heavy with E235D, Y236L, H270D, P273G, Y298D, A328K, K332R
light: B1 light
notes: as for B9
B18: IL6R-2B002/IL6R-L (antibody, human IgG1)
heavy: B1 heavy with E235D, Y236L, A328K, K332A
light: B1 light
notes: IgG1; Fc variant of IL6R-B3; copies: 2 + 2
B19: IL6R-BP136/IL6R-L (antibody, human IgG1)
heavy: B1 heavy with Y236L, K332A
light: B1 light
notes: as for B18
B20: IL6R-BP142/IL6R-L (antibody, human IgG1)
heavy: B1 heavy with Y236L, A328N, K332A
light: B1 light
notes: as for B18

The binders below were run against T1, FcγRIIa type H (assay: SPR (Biacore), antibody captured, FcγR analyte).

| Binder | Kd |
| --- | --- |
| B1 | 20000 nM |
| B2 | 40000 nM |
| B3 | 30000 nM |
| B4 | 36000 nM |
| B5 | 17000 nM |
| B6 | ~7000 nM |
| B7 | 30000 nM |
| B8 | 26000 nM |

What follows are binders tested against T9, FcγRIIIa type V (human, UniProt P08637 17-208, limits assumed) (assay: SPR (Biacore), antibody captured, FcγR analyte).
T9 construct: SPR analyte; allotype V158 was used here; also called FcγRIIIaV; FcγRIIIa(V)
T9 sequence (P08637 other isoform, or with tags, fused parts or gaps limits assumed): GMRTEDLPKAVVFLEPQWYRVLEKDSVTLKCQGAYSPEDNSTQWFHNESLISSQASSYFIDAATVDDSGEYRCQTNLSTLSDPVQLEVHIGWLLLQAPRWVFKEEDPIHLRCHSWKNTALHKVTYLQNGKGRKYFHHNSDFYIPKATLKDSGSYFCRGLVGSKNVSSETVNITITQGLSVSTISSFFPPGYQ

| Binder | Kd |
| --- | --- |
| B1 | 51000 nM |
| B2 | 75000 nM |
| B3 | 58000 nM |
| B4 | 55000 nM |
| B5 | 45000 nM |
| B6 | 30000 nM |
| B7 | 54000 nM |
| B8 | 57000 nM |

These binders were tested against T2, FcγRIIb (assay: SPR (Biacore), antibody captured, FcγR analyte).

| Binder | Kd |
| --- | --- |
| B1 | 390 nM |
| B2 | 520 nM |
| B3 | 370 nM |
| B4 | 790 nM |
| B5 | 340 nM |
| B6 | 75 nM |
| B7 | 360 nM |
| B8 | 160 nM |

Target: T3, FcγRIIa type R
Test: SPR (Biacore), antibody captured, FcγR analyte

| Binder | Kd |
| --- | --- |
| B1 | 6400 nM |
| B2 | 15000 nM |
| B3 | 8000 nM |
| B4 | 6900 nM |
| B5 | 3400 nM |
| B6 | 1100 nM |
| B7 | 6900 nM |
| B8 | 3200 nM |

Each binder was assayed against T10, FcγRIa (human, UniProt P12314 16-292, limits assumed) (assay: SPR (Biacore), antibody captured, FcγR analyte).
T10 construct: SPR analyte; also called CD64
T10 sequence (P12314 16-292 limits assumed): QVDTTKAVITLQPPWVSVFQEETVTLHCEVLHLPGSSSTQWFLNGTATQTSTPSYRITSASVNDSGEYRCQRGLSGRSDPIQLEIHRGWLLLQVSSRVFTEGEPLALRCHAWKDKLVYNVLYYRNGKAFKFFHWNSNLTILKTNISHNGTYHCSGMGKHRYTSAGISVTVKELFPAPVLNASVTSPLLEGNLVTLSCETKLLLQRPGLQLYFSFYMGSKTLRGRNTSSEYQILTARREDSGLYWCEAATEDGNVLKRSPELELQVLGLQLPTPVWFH

| Binder | Kd |
| --- | --- |
| B1 | 63 nM |
| B2 | 25 nM |
| B3 | 15 nM |
| B4 | 37 nM |
| B5 | 120 nM |
| B6 | 89 nM |
| B7 | 7.3 nM |
| B8 | 7.5 nM |

The binders below were run against T4, FcγRIIb (assay: SPR (Biacore), method of Example 14).
From the text: (§1) Furthermore, KD(IIaR)/KD(IIb) and KD(IIaH)/KD(IIb) in the table respectively represent the value obtained by dividing the KD value of each variant for FcγRIIaR by the KD value of each variant for FcγRIIb, and the value obtained by dividing the KD value of each variant for FcγRIIaH by the KD value of each variant for FcγRIIb. KD(IIb) of the parent polypeptide/KD(IIb) of the altered polypeptide refers to the value obtained by dividing the KD value of the parent polypeptide for FcγRIIb by the KD value of each variant for FcγRIIb.

| Binder | Kd |
| --- | --- |
| B9 | 110 nM |
| B10 | 120 nM |
| B11 | 490 nM |
| B12 | 40 nM |
| B13 | 64 nM |
| B14 | 250 nM |
| B15 | 160 nM |
| B16 | 39 nM |
| B17 | 170 nM |

These binders were tested against T11, FcγRIa (human, UniProt P12314 16-292, limits assumed) (assay: SPR (Biacore), method of Example 14).
T11 construct: also called CD64
T11 sequence (P12314 16-292 limits assumed): as above
From the text: as §1

| Binder | Kd |
| --- | --- |
| B9 | 6.6 nM |
| B10 | 6.3 nM |
| B11 | 6.4 nM |
| B12 | 51 nM |
| B13 | 95 nM |
| B14 | 7.6 nM |
| B15 | 7.7 nM |
| B16 | 65 nM |
| B17 | 5.2 nM |

Target: T5, FcγRIIa type R
Test: SPR (Biacore), method of Example 14
From the text: as §1

| Binder | Kd |
| --- | --- |
| B9 | 2600 nM |
| B12 | 840 nM |
| B13 | 1200 nM |
| B14 | 4500 nM |
| B15 | 3500 nM |
| B16 | 1000 nM |
| B17 | 3500 nM |

The binders below were run against T6, FcγRIIa type H (assay: SPR (Biacore), method of Example 14).
From the text: as §1

| Binder | Kd |
| --- | --- |
| B9 | 32000 nM |
| B10 | 25000 nM |
| B11 | 26000 nM |
| B12 | 69000 nM |
| B13 | 92000 nM |
| B14 | 21000 nM |
| B15 | 28000 nM |
| B16 | 95000 nM |
| B17 | 22000 nM |

Each binder was assayed against T2, FcγRIIb (assay: ratio of SPR KDs; reference IL6R-B3/IL6R-L).
From the text: as §1

| Binder | KD(IIb) of the parent polypeptide/KD(IIb) of altered polypeptide |
| --- | --- |
| B1 | 8 |
| B2 | 6 |
| B3 | 8.4 |
| B4 | 3.9 |
| B5 | 9.1 |
| B6 | 41.4 |
| B7 | 8.6 |
| B8 | 19.3 |

These binders were tested against T12, FcγRIa (human, UniProt P12314 16-292, limits assumed) (assay: SPR (Biacore), FcγR over captured antibody).
T12 construct: also called FcgRIa; CD64
T12 sequence (P12314 16-292 limits assumed): as above

| Binder | Kd |
| --- | --- |
| B18 | 6.4 nM |
| B19 | 6.6 nM |
| B20 | 5.3 nM |

The binders below were run against T7, FcγRIIa type H (assay: SPR (Biacore), FcγR over captured antibody).

| Binder | Kd |
| --- | --- |
| B18 | 86000 nM |
| B19 | 38000 nM |
| B20 | 93000 nM |

The binders below were run against T13, FcγRIIIa type V (human, UniProt P08637 17-208, limits assumed) (assay: SPR (Biacore), FcγR over captured antibody).
T13 construct: also called FcγRIIIaV; FcgRIIIaV
T13 sequence (P08637 other isoform, or with tags, fused parts or gaps limits assumed): as the sequence (P08637 other isoform, or with tags, fused parts or gaps limits assumed) above

| Binder | Kd |
| --- | --- |
| B18 | 53000 nM |
| B19 | 69000 nM |
| B20 | 110000 nM |

Each binder was assayed against T8, FcγRIIb (assay: SPR (Biacore), FcγR over captured antibody).

| Binder | Kd |
| --- | --- |
| B18 | 930 nM |
| B19 | 800 nM |
| B20 | 1200 nM |

Each binder was assayed against T4, FcγRIIb (assay: ratio of SPR KD values, parent IL6R-B3/IL6R-L).
From the text: as §1

| Binder | KD(IIb) of the parent polypeptide/KD(IIb) of altered polypeptide |
| --- | --- |
| B9 | 27.3 fold |
| B10 | 25.5 fold |
| B11 | 6.3 fold |
| B12 | 77.1 fold |
| B13 | 48.4 fold |
| B14 | 12.2 fold |
| B15 | 19.4 fold |
| B16 | 78.4 fold |
| B17 | 18.7 fold |
